# Laboratory results taken from article PMC8476707.
# “And” between values parts separate entries of the source, which are not always exact repeats. Equal values may be shown once.
# Target: empty AAV8 capsid (recombinant adeno-associated virus serotype 8, no genome) (adeno-associated virus 8 (AAV8)) (UniProt Q8JQF8)
# Assay: native MS; charge detection mass spectrometry (CDMS) of single ions; nanoelectrospray from 200 mM ammonium acetate pH 7.5 after exchange on Micro Bio-Spin columns; 100 ms trapping time; charge versus mass scatterplot; capsid with capsid (multimers of whole particles)
substance,measurement,value
"empty AAV8 capsid (recombinant adeno-associated virus serotype 8, no genome) (from UniProt Q8JQF8 1-738) (complex)",percent of ions that are capsid dimers,3.8%
same,percent of ions that are capsid trimers,0.8%
same,stoichiometry N,2 and 3
